Assay results from publication PMC8263772 (2021).

Target: SARS-CoV-2 spike (S) protein receptor binding domain (RBD), wild type (SARS-CoV-2, UniProt P0DTC2)
Experiment: SPR

B1: dog angiotensin-converting enzyme 2 (dACE2) ectodomain, 6xHis (receptor)
chain: MQSTEDLVKTFLEKFNYEAEELSYQSSLASWNYNINITDENVQKMNNAGAKWSAFYEEQSKLAKTYPLEEIQDSTVKRQLRALQHSGSSVLSADKNQRLNTILNSMSTIYSTGKACNPSNPQECLLLEPGLDDIMENSKDYNERLWAWEGWRSEVGKQLRPLYEEYVALKNEMARANNYEDYGDYWRGDYEEEWENGYNYSRNQLIDDVEHTFTQIMPLYQHLHAYVRTKLMDTYPSYISPTGCLPAHLLGDMWGRFWTNLYPLTVPFGQKPNIDVTNAMVNQSWDARKIFKEAEKFFVSVGLPNMTQEFWENSMLTEPSDSRKVVCHPTAWDLGKGDFRIKMCTKVTMDDFLTAHHEMGHIQYDMAYAAQPFLLRNGANEGFHEAVGEIMSLSAATPNHLKNIGLLPPSFFEDSETEINFLLKQALTIVGTLPFTYMLEKWRWMVFKGEIPKDQWMKTWWEMKRNIVGVVEPVPHDETYCDPASLFHVANDYSFIRYYTRTIYQFQFQEALCQIAKHEGPLHKCDISNSSEAGQKLLEMLKLGKSKPWTYALEIVVGAKNMDVRPLLNYFEPLFTWLKEQNRNSFVGWNTDWSPYADQSIKVRISLKSALGEKAYEWNNNEMYLFRSSIAYAMRQYFSEVKNQTIPFVEDNVWVSDLKPRISFNFFVTSPGNVSDIIPRTEVEEAIRMYRSRINDVFRLDDNSLEFLGIQPTLGPPYEPPVT
B1 showed a koff of 0.0139 s⁻¹.
